Experimental data published in US20090311267A1 (UNIVERSITY OF WURZBURG, published 2009).
“And” between values parts separate entries of the source, which are not always exact repeats. Equal values may be shown once.

What was measured:
[1] = target: T1, (1-289) recombinant (r) GPIbα fragment expressed by Chinese hamster ovary cells (human, UniProt P07359 17-305); experiment: ELISA: inhibition of botrocetin (0.5 µg/ml)-induced binding of vWF to rGPIbα captured on 2D4
T1 construct: they seem to count on the mature chain, not on the precursor; Fragment obtained from Meyer et al; also called rGPIb-fragment; recombinant GPIbα fragment (His1-Val289)

[2] = target: T1, (1-289) recombinant (r) GPIbα fragment …; experiment: ELISA: inhibition of ristocetin (300 µg/ml)-induced binding of vWF to rGPIbα captured on 2D4
[3] = target: human platelet glycoprotein GPIb (on human platelets) (human, UniProt P07359 17-652); experiment: cell-based or functional assay

B1: 6B4 Fab fragments (Fab, V domains shown)
VH: QVQLQESGPGLVAPSQSLSITCTVSGISLNRYGVHWVRQPPGKGLEWLGVIWTGGSTNYNSALMSRLSISKDNSKSQVFLKMNSLQTDDTAMYYCARDRSTMITAYAMDYWGQGTTVTVSS
VL: DIELTQSPAIMSASPGEKVTMTCSASSSVNYMHWFQQESGTFPKRRIYDTSKLASGVPARLSGSGSGTEFTLEISRVKAEDVGVYYCQQLVEYPLTFGAGTKLELK
[1]
  IC50: 2.5 µg/mL and 50 nM
[2]
  IC50: 1.8 µg/mL and 36 nM
[3]
  IC50 of botrocetin-(0.5 µg/ml) induced human platelet agglutination: 2 µg/ml and 40 nmol/L
  IC50 of ristocetin-(1 mg/ml) induced human platelet agglutination: 1.2 µg/ml and 24 nmol/L
